Patent publication US20240263208A1, “CYTOCHROME P450 ENZYME” (HYPHA DISCOVERY LTD., priority 2021, published 2024)
Values belong to the molecule of their own block, whether it stands above or below them.

Tests used:
Format in all cases: biochemical
[1] = Oxidase activity testing against perindopril; conditions: for Average % conversion: substrate Perindopril, Batch 2
Protocol: (§1) Lyophilised material of recombinant P450, ferredoxin and ferredoxin reductase proteins was made as described in Example 4 and reconstituted in high purity water to the original volume. Biocatalysis was performed with shaking incubation at 27° C. in the following conditions: 100 mM potassium phosphate pH 8.0, 5 mM MgCl2 (both present in the reconstituted enzyme preparation) and 0.1 mg/ml substrate compound such as ambroxide (Sigma-Aldrich, UK), carbamazepine (Sigma-Aldrich, UK), diclofenac (Sigma-Aldrich, UK), tivantinib (MedChemtronica, Sweden), clarithromycin (Tokyo Chemical Industry, Japan), sclareol (Sigma-Aldrich, UK), celecoxib (LC Laboratories, USA), buparvaquone (Sigma-Aldrich, UK), BIRB796 (MedChemExpress, USA), vanoxerine (CiVentiChem, USA), valsartan (Tokyo Chemical Industry, Japan), ruxolitinib (LC Laboratories, USA), perindopril (Selleckchem, USA), solifenacin (Key Organics, UK), 7-ethoxycoumarin (Tokyo Chemical Industry, Japan), tofacitinib (LC Laboratories, USA), ebastine (Key Organics, UK), efavirenz (Key Organics, UK), propanalol (Sigma-Aldrich, UK) and tolbutamide (Key Organics, UK).
(§2) Concentrations of P450, ferredoxin and ferredoxin reductase were as extracted (Example 4). Reactions were initiated by addition of 10× stock of cofactor mixture (50 mM G6P, 10 mM NADP+, 10 UN/ml G6PDH) to provide a final volume of e.g., 10 μl to 90 μl for 100 μl total reaction volumes. After 16-20 hours, reactions were extracted with an equal volume of acetonitrile, centrifuged to remove precipitated proteins and conversion assessed by UPLC-MS analysis.
(§3) UPLC Data were Obtained as Follows: • Column: Acquity UPLC BEH Shield RP18 1.7 μm 2.1 mm i.d. 50 mm length • Solvents: H2O, B: Acetonitrile, both with 0.1% Formic acid • Flow rate: 1.0 ml/min • Detector: Waters Acquity UPLC PDA (UV-Vis detection) and Waters Acquity UPLC QDA (MS)
(§4) Representative results for the % conversions of various substrates to products by enzymes with mutations at position T109 or L198 and double mutants at T109 and 1129/L198 are shown in Table 4 below.

[2] = Oxidase activity testing against solifenacin; conditions: for Average % conversion: substrate Solifenacin, Batch 2
Protocol: as §1, §2, §3, §4

[3] = Oxidase activity testing against sclareol; conditions: for Average % conversion: substrate Sclareol, Batch 2, UPLC-MS UV or MS peak areas
Protocol: as §1, §2, §3, §4

[4] = Oxidase activity testing against tofacitinib; conditions: substrate Tofacitinib; Batch 2
Protocol: as §1, §2, §3, §4

[5] = Oxidase activity testing against celecoxib; conditions: substrate Celecoxib; Batch 2
Protocol: as §1, §2, §3, §4

[6] = Oxidase activity testing against efavirenz; conditions: for Average % conversion: substrate Efavirenz, Batch 2
Protocol: as §1, §2, §3, §4

[7] = Oxidase activity testing against 7-ethoxycoumarin; conditions: for Average % conversion: substrate 7-ethoxycoumarin, Batch 2
Protocol: as §1, §2, §3, §4

[8] = Oxidase activity testing against propanalol; conditions: for Average % conversion: substrate Propanalol, Batch 2
Protocol: as §1, §2, §3, §4

[9] = Oxidase activity testing against tolbutamide; conditions: for Average % conversion: substrate Tolbutamide, Batch 2
Protocol: as §1, §2, §3, §4

[10] = Oxidase activity testing against BIRB796; conditions: substrate BIRB796; Batch 2
Protocol: as §1, §2, §3, §4

[11] = Oxidase activity testing against vanoxerine; conditions: for Average % conversion: substrate Vanoxerine, Batch 2
Protocol: as §1, §2, §3, §4

[12] = Oxidase activity testing against ruxolitinib; conditions: substrate Ruxolitinib; Batch 2
Protocol: as §1, §2, §3, §4

[13] = Oxidase activity testing against valsartan; conditions: for Average % conversion: substrate Valsartan, Batch 2
Protocol: as §1, §2, §3, §4

[14] = Oxidase activity testing against ebastine; conditions: for Average % conversion: substrate Ebastine, Batch 2
Protocol: as §1, §2, §3, §4

[15] = Oxidase activity testing against clarithromycin; conditions: for Average % conversion: substrate Clarithromycin, Batch 2
Protocol: as §1, §2, §3, §4

[16] = Oxidase activity testing, lyophilised recombinant P450/ferredoxin SeuF08/ferredoxin reductase SCF15A against ambroxide; conditions: for +16 Da (1.50 min) 253 m/z / +16 Da (1.60 min) 253 m/z / +16 Da (2.04 min) 253 m/z: oxidised ambroxide product; for +16 Da (1.50 min) 253 m/z / +16 Da (1.60 min) 253 m/z / +16 Da (2.04 min) 253 m/z / Ambroxide (2.22 min) 237 m/z: relative MS peak area; for Ambroxide (2.22 min) 237 m/z: remaining substrate, 0.1 mg/ml ambroxide, 27° C., 16-20 hours; for Average % conversion: substrate ambroxide, relative MS peak areas
Protocol: as §1, §2, §3
To confirm the identities of reaction products where known, their chromatographic retention time, mass and ultraviolet spectra were compared with those of authentic metabolite standards.
Representative results for the % conversions of ambroxide to oxidised (+16 Da) products for single point mutants at position T109 are shown in Table 2 below.

[17] = Oxidase activity testing against buparvaquone; conditions: for Average % conversion: substrate Buparvaquone, Batch 2
Protocol: as §1, §2, §3, §4

B1: M30: P450SeuC10 with L198F and T109F double mutations, SEQ ID NO: 126 (protein)
chain: MKIGTTHLTRLRGLSMTELTDITGPAAQAETVAFPQDRTCPYHPPTGYDPLRDGRPLSRVTLYDGREVWLVTAQATARALLADPRLSTDRRRDGFPVPTPRFAAGRDRFLALLGLDDPEHHRQRRLLIPSFTLKRATAQRPWIQRIVDELLDAMIARGPVADLVSAFALPVPSMVICELLGVPYADHEFFEEQSRRLFRGPTGADTTDARDRLEAYLGDLIDAKAKEAEPGDGILDDLVHNRLRAGELDRSVLVSLAVILLVAGHETTANMISLGTYTLLQHPERLAELRADPSLLPAVVEELLRMLSIAEGLQRLALEDIEIDGITIRAGEGVLFSTSVINRDTAVYEDPDDLDFHRADRHHVAFGFGIHQCLGQNLARAELEIALGSLFTRLPGLRLAAPAEEIPFKPGDTVQGMLELPVTW
modifications: SeuC10M30
- conversion of perindopril compared to wild-type (in words) [1]: significantly increased conversion
- Average % conversion [1]: 61.4%
- Average % conversion [2]: 3%
- Average % conversion [3]: 31%
- Average % conversion [4]: 33.3%
- Average % conversion [5]: 21.6%
- Average % conversion [6]: 0%
- Average % conversion [7]: 38%
- Average % conversion [8]: 0%
- Average % conversion [9]: 35.7%
- Average % conversion [10]: 38.5%
- Average % conversion [11]: 79.1%
- Average % conversion [12]: 99.1%
- Average % conversion [13]: 17.1%
- Average % conversion [14]: 9.7%
- Average % conversion [15]: 0.9%

B2: SeuC10M26: P450SeuC10 with T109I mutation, SEQ ID NO: 56 (protein)
chain: MKIGTTHLTRLRGLSMTELTDITGPAAQAETVAFPQDRTCPYHPPTGYDPLRDGRPLSRVTLYDGREVWLVTAQATARALLADPRLSTDRRRDGFPVPTPRFAAGRDRILALLGLDDPEHHRQRRLLIPSFTLKRATAQRPWIQRIVDELLDAMIARGPVADLVSAFALPVPSMVICELLGVPYADHEFFEEQSRRLLRGPTGADTTDARDRLEAYLGDLIDAKAKEAEPGDGILDDLVHNRLRAGELDRSVLVSLAVILLVAGHETTANMISLGTYTLLQHPERLAELRADPSLLPAVVEELLRMLSIAEGLQRLALEDIEIDGITIRAGEGVLFSTSVINRDTAVYEDPDDLDFHRADRHHVAFGFGIHQCLGQNLARAELEIALGSLFTRLPGLRLAAPAEEIPFKPGDTVQGMLELPVTW
modifications: SeuC10M26
- +16 Da (1.50 min) 253 m/z [16]: 58.3%
- +16 Da (1.60 min) 253 m/z [16]: 0.0%
- +16 Da (2.04 min) 253 m/z [16]: 0.0%
- Ambroxide (2.22 min) 237 m/z [16]: 41.7%
- Average % conversion [16]: 58.3%

B3: SeuC10M27: P450SeuC10 with T109V mutation, SEQ ID NO: 58 (protein)
chain: MKIGTTHLTRLRGLSMTELTDITGPAAQAETVAFPQDRTCPYHPPTGYDPLRDGRPLSRVTLYDGREVWLVTAQATARALLADPRLSTDRRRDGFPVPTPRFAAGRDRVLALLGLDDPEHHRQRRLLIPSFTLKRATAQRPWIQRIVDELLDAMIARGPVADLVSAFALPVPSMVICELLGVPYADHEFFEEQSRRLLRGPTGADTTDARDRLEAYLGDLIDAKAKEAEPGDGILDDLVHNRLRAGELDRSVLVSLAVILLVAGHETTANMISLGTYTLLQHPERLAELRADPSLLPAVVEELLRMLSIAEGLQRLALEDIEIDGITIRAGEGVLFSTSVINRDTAVYEDPDDLDFHRADRHHVAFGFGIHQCLGQNLARAELEIALGSLFTRLPGLRLAAPAEEIPFKPGDTVQGMLELPVTW
modifications: SeuC10M27
- +16 Da (1.50 min) 253 m/z [16]: 58.6%
- +16 Da (1.60 min) 253 m/z [16]: 0.9%
- +16 Da (2.04 min) 253 m/z [16]: 2.3%
- Ambroxide (2.22 min) 237 m/z [16]: 38.2%
- Average % conversion [16]: 61.7%

- product at 1.42 minutes from sclareol ([3]; FIG. 7): increased production
- product at 1.55 minutes from sclareol ([3]; FIG. 7): generated a new product
- new product at 3.12 minutes (3″-O-demethylclarithromycin) from clarithromycin ([15]; chromatographic analysis, FIGS. 5 and 6): production of a new product
B4: M32: P450SeuC10 with T109F and I259L double mutations, SEQ ID NO: 130 (protein)
chain: MKIGTTHLTRLRGLSMTELTDITGPAAQAETVAFPQDRTCPYHPPTGYDPLRDGRPLSRVTLYDGREVWLVTAQATARALLADPRLSTDRRRDGFPVPTPRFAAGRDRFLALLGLDDPEHHRQRRLLIPSFTLKRATAQRPWIQRIVDELLDAMIARGPVADLVSAFALPVPSMVICELLGVPYADHEFFEEQSRRLLRGPTGADTTDARDRLEAYLGDLIDAKAKEAEPGDGILDDLVHNRLRAGELDRSVLVSLAVLLLVAGHETTANMISLGTYTLLQHPERLAELRADPSLLPAVVEELLRMLSIAEGLQRLALEDIEIDGITIRAGEGVLFSTSVINRDTAVYEDPDDLDFHRADRHHVAFGFGIHQCLGQNLARAELEIALGSLFTRLPGLRLAAPAEEIPFKPGDTVQGMLELPVTW
modifications: SeuC10M32
- Average % conversion [1]: 45.6%
- Average % conversion [2]: 25.9%
- conversion of sclareol compared to wild-type (in words) [3]: significantly increased conversion
- Average % conversion [3]: 84.5%
- Average % conversion [17]: 31.5%
- Average % conversion [4]: 40.8%
- Average % conversion [5]: 35.6%
- conversion of efavirenz, not converted by wild-type (in words) [6]: achieved conversion
- Average % conversion [6]: 1.2%
- Average % conversion [7]: 20.2%
- conversion of propanalol, not converted by wild-type (in words) [8]: achieved conversion
- Average % conversion [8]: 1.6%
- Average % conversion [9]: 56.1%
- Average % conversion [10]: 90.6%
- conversion of vanoxerine compared to wild-type (in words) [11]: significantly increased conversion
- Average % conversion [11]: 88.8%
- Average % conversion [12]: 99.2%
- conversion of valsartan compared to wild-type (in words) [13]: significantly increased conversion
- Average % conversion [13]: 66.8%
- Average % conversion [14]: 10.4%
- conversion of clarithromycin, not converted by wild-type (in words) [15]: achieved conversion
- Average % conversion [15]: 23.3%

- product at 1.97 minutes from buparvaquone (hydroxylation of a t-butyl methyl group) ([17]; FIG. 8): increased production
- product at 1.38 minutes from ebastine ([14]; FIG. 9): increased production
B5: M53: P450SeuC10 with T109P mutation, SEQ ID NO: 124 (protein)
chain: MKIGTTHLTRLRGLSMTELTDITGPAAQAETVAFPQDRTCPYHPPTGYDPLRDGRPLSRVTLYDGREVWLVTAQATARALLADPRLSTDRRRDGFPVPTPRFAAGRDRPLALLGLDDPEHHRQRRLLIPSFTLKRATAQRPWIQRIVDELLDAMIARGPVADLVSAFALPVPSMVICELLGVPYADHEFFEEQSRRLLRGPTGADTTDARDRLEAYLGDLIDAKAKEAEPGDGILDDLVHNRLRAGELDRSVLVSLAVILLVAGHETTANMISLGTYTLLQHPERLAELRADPSLLPAVVEELLRMLSIAEGLQRLALEDIEIDGITIRAGEGVLFSTSVINRDTAVYEDPDDLDFHRADRHHVAFGFGIHQCLGQNLARAELEIALGSLFTRLPGLRLAAPAEEIPFKPGDTVQGMLELPVTW
modifications: SeuC10M53
- Average % conversion [1]: 46.5%
- conversion of solifenacin compared to wild-type (in words) [2]: significantly increased conversion
- Average % conversion [2]: 33.6%
- Average % conversion [3]: 52.7%
- conversion of buparvaquone compared to wild-type (in words) [17]: significantly increased conversion
- Average % conversion [17]: 54.7%
- Average % conversion [4]: 67.5%
- Average % conversion [5]: 39.1%
- Average % conversion [6]: 1.8%
- conversion of 7-ethoxycoumarin compared to wild-type (in words) [7]: significantly increased conversion
- Average % conversion [7]: 67.2%
- conversion of tolbutamide compared to wild-type (in words) [9]: significantly increased conversion
- Average % conversion [9]: 77.6%
- Average % conversion [10]: 36.3%
- Average % conversion [11]: 44.5%
- Average % conversion [12]: 98.6%
- Average % conversion [13]: 14.3%
- Average % conversion [14]: 17.4%
